Assay [1] deals with T1, 재조합 hAng-2 (C-His, R&D Systems) (human, UniProt O15123 19-496).
T1 construct: Bought protein; also called 인간 Ang-2 단백질
T1 sequence: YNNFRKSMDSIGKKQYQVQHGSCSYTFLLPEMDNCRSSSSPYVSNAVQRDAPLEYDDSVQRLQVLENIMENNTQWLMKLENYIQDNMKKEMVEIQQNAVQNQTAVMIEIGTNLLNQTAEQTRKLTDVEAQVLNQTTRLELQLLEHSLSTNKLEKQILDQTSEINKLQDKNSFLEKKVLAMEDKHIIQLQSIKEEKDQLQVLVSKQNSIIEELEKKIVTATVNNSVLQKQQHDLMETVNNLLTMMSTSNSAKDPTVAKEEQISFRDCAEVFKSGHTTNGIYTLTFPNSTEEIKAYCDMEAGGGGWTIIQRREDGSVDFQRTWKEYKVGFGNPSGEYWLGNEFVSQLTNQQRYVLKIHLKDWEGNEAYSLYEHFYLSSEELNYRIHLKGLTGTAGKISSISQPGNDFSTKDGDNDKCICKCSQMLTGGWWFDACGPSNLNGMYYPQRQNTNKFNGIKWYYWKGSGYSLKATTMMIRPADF
Briefly: SPR, BIAcore T100; hAng-2 (C-His) captured by anti-His antibody on CM5 chip, antibody flowed from 100 nM in 2-fold dilutions. Background: In SPR one partner is held on a chip, and binding of the other changes the refractive index at the surface.

Assay [2] addresses Mutant Ang2 N467 (alanine), FLAG-tagged (human) (UniProt O15123). The experiment in a line: ELISA, antibody coated (1000nM), FLAG-Ang2 mutant 250ng, anti-FLAG-HRP, OD450 against native Ang2. Background: In an ELISA, binding on a coated surface is turned into a signal by an enzyme label.
Assay [3] has as its target Mutant Ang2 Q418 (alanine), FLAG-tagged (human) (UniProt O15123). The description is as above.
Assay [4] concerns the target Mutant Ang2 F469 (alanine), FLAG-tagged (human) (UniProt O15123). The description is as above.
In assay [5] the target is Mutant Ang2 S417 (alanine), FLAG-tagged (human) (UniProt O15123). The assay is described as above.
Assay [6] concerns the target Mutant Ang2 N421 (alanine), FLAG-tagged (human) (UniProt O15123). The assay is described as above.
Assay [7] has as its target Mutant Ang2 I434 (alanine), FLAG-tagged (human) (UniProt O15123). Described as above.
In assay [8] the target is Mutant Ang2 K468 (alanine), FLAG-tagged (human) (UniProt O15123). The description is as above.
For assay [9], the target named is Mutant Ang2 D448 (alanine), FLAG-tagged (human) (UniProt O15123). The description is as above.
Assay [10] addresses Mutant Ang2 Y460 (alanine), FLAG-tagged (human) (UniProt O15123). Described as above.
The target of assay [11] is Mutant Ang2 A449 (alanine), FLAG-tagged (human) (UniProt O15123). The description is as above.
Assay [12] deals with Mutant Ang2 P452 (alanine), FLAG-tagged (human) (UniProt O15123). The assay is described as above.
Assay [13] deals with Mutant Ang2 P419 (alanine), FLAG-tagged (human) (UniProt O15123). The assay is described as above.
Assay [14] deals with T2, hTie2-Fc (R&D Systems) (human, UniProt Q02763 23-745).
T2 construct: Bought fusion protein, coated on the plate; also called hTie-2/Fc 융합 단백질; not shown: Fc of human IgG1
T2 sequence (Q02763 23-745 limits assumed): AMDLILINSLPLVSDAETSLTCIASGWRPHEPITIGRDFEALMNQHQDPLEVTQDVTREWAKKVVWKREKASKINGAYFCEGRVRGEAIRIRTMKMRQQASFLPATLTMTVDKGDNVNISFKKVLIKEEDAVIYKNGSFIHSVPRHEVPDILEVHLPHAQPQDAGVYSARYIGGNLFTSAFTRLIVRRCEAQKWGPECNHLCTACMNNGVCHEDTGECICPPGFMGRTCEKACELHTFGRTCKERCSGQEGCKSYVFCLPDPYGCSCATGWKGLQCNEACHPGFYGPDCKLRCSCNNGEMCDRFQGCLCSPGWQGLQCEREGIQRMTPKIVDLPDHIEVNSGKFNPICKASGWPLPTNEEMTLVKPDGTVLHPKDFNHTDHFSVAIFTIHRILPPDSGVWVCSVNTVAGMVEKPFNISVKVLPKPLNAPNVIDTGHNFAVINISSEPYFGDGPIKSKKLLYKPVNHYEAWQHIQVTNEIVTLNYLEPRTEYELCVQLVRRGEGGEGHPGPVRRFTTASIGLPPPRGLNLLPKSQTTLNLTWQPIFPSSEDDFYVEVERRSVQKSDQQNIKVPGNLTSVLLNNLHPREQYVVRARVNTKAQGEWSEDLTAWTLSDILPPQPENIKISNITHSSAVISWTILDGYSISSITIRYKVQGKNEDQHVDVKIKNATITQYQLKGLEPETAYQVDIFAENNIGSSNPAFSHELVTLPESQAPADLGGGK
Briefly: complex ELISA: Tie2-Fc coated, Ang2 0.25 ug/ml and 10D6 2 ug/ml added, anti-mouse IgG-HRP.

As a reminder, the Kd is the concentration at which binding is half-saturated. A low value points to a tighter complex.

B1: SAIT-ANG2-AB-m10D6 (antibody, V domains shown)
VH: DVQLQESGPGLVKPSQSLSLTCTVTGYSITSDYAWNWIRQFPGNKLEWMGYINYSGNTDYNPSLKSRSSITRDTSKNQFFLQLNSVTTGDTATYYCARGNFEGAMDYWGQGTSVTVSS
VL: SIVMTQTPKFLLVSAGDRVTITCKASQSVSNDVAWYQQKPGQSPKLLIYYASNRYPGVPDRFTGSGYGTDFTFTISTVQAEDLAVYFCQQDYSSPWTFGGGTKLEIK
notes: also called 10D6 항체; 10D6 anti-Ang2 항체
As for B1, the Kd in assay [1] is 8 nM. The native Ang2와의 결합력에 대한 Mutant Ang2 와의 결합력(%) in assay [2] was determined as 107%; in [3] it was 38.9%; in assay [4], 109%; in assay [5], 101%; in assay [6], 109%; in assay [7] it was 109%. Besides, the native Ang2와의 결합력에 대한 Mutant Ang2 와의 결합력(%) in [8] was found to be 110%; in assay [9] it was 105%; in assay [10] it was 103%; in [11] it was 97.9%; in [12] it was 102%; in [13], 41.1%.

B2: Ang2 단백질(R&D systems) (ligand)
chain: YNNFRKSMDSIGKKQYQVQHGSCSYTFLLPEMDNCRSSSSPYVSNAVQRDAPLEYDDSVQRLQVLENIMENNTQWLMKLENYIQDNMKKEMVEIQQNAVQNQTAVMIEIGTNLLNQTAEQTRKLTDVEAQVLNQTTRLELQLLEHSLSTNKLEKQILDQTSEINKLQDKNSFLEKKVLAMEDKHIIQLQSIKEEKDQLQVLVSKQNSIIEELEKKIVTATVNNSVLQKQQHDLMETVNNLLTMMSTSNSAKDPTVAKEEQISFRDCAEVFKSGHTTNGIYTLTFPNSTEEIKAYCDMEAGGGGWTIIQRREDGSVDFQRTWKEYKVGFGNPSGEYWLGNEFVSQLTNQQRYVLKIHLKDWEGNEAYSLYEHFYLSSEELNYRIHLKGLTGTAGKISSISQPGNDFSTKDGDNDKCICKCSQMLTGGWWFDACGPSNLNGMYYPQRQNTNKFNGIKWYYWKGSGYSLKATTMMIRPADF
notes: also called 인간 Ang2 단백질 (R&D systems; 623-AN-025/CF)
Consider B2, for which, in assay [14], the binding result is given as “binds”.
